Paper PMC9617004, “Cloning and characterization of thermophilic endoglucanase and its application in the transformation of ginsenosides” (AMB Express, 2022)

Assays:
Assay in all cases: HPLC of ginsenoside conversion, Michaelis-Menten
Assay type in all cases: biochemical, Fervidobacterium pennivorans
Details in all cases: 50 mM phosphate-citrate, pH 6.0, 95 °C, substrate range stated as 0.5 to 10.0 mM (printed unit µM may be mM)
[1] = substrate: CC(C)=CCC[C@](C)(O[C@@H]1O[C@H](CO[C@@H]2O[C@H](CO)[C@@H](O)[C@H](O)[C@H]2O)[C@@H](O)[C@H](O)[C@H]1O)[C@H]1CC[C@]2(C)[C@@H]1[C@H](O)C[C@@H]1[C@@]3(C)CC[C@H](O[C@@H]4O[C@H](CO)[C@@H](O)[C@H](O)[C@H]4O[C@@H]4O[C@H](CO)[C@@H](O)[C@H](O)[C@H]4O)C(C)(C)[C@@H]3CC[C@]12C
Text: (§1) HPLC of ginsenoside conversion, Michaelis-Menten on BcelFp

[2] = substrate: [H][C@@]1(O[C@@H]2[C@@H](O)[C@H](O)[C@@H](CO)O[C@@]2([H])O[C@H]2CC[C@]3(C)[C@@]4([H])C[C@@H](O)[C@]5([H])[C@@]([H])([C@](C)(CCC=C(C)C)O[C@@H]6O[C@H](CO[C@@H]7OC[C@H](O)[C@H](O)[C@H]7O)[C@@H](O)[C@H](O)[C@H]6O)CC[C@@]5(C)[C@]4(C)CC[C@@]3([H])C2(C)C)O[C@H](CO)[C@@H](O)[C@H](O)[C@H]1O
Text: as §1

[3] = substrate: CC(C)=CCC[C@](C)(O[C@@H]1O[C@H](CO)[C@@H](O)[C@H](O)[C@H]1O)[C@H]1CC[C@]2(C)[C@@H]1[C@H](O)C[C@@H]1[C@@]3(C)CC[C@H](O[C@@H]4O[C@H](CO)[C@@H](O)[C@H](O)[C@H]4O[C@@H]4O[C@H](CO)[C@@H](O)[C@H](O)[C@H]4O)C(C)(C)[C@@H]3CC[C@]12C
Text: as §1

B1: BcelFp (Fervidobacterium pennivorans DSM 9078) (protein)
chain: MDQSVAESDSNSALEYNKIIGKGVNIGNALEAPFEGAWGVRIEDEYFEIIKKRGFDSVRIPIRWSAHISEKPPYDIDRNFLERVKHVVDRALENNLTVIINTHHFEELYQEPDKYGNVLVEIWRQIAKFFKDYPENLFFEIYNEPAQNLTAEKWNELYPKVLKVIRESNPTRIVIIDAPNWAHYSAVRSLKLVNDKRIIVSFHYYEPFNFTHQGAEWVNPTPPVGVKWNGEEWEINQIRSHFKYVSDWAKQNKVPIFLGEFGAYSKADMDSRVKWTESVRKMAEEFGFSYAYWEFCAGFGIYDRWSQNWIEPLATAVVGESKE
notes: 323 residues (969 bp), N-terminal His-tag, pET28a BamHI/XhoI, E. coli BL21-CodonPlus(DE3)-RIL, Ni-NTA; calculated 37,892 Da, about 38 kDa by SDS-PAGE; forward primer starts … (MDQSVA)
Vmax [1]: 382 µM/min | kcat/Km [1]: 12500 M⁻¹ s⁻¹ | Km ([1]; unit of the source corrected): 3660 µM | Vmax [2]: 315 µM/min | kcat/Km [2]: 9390 M⁻¹ s⁻¹ | Km ([2]; unit of the source corrected): 4020 µM | Vmax [3]: 156 µM/min | kcat/Km [3]: 27900 M⁻¹ s⁻¹ | Km ([3]; unit of the source corrected): 670 µM
